For test [1], the target named is DDM1 N terminus (1–148) with K102E and K120E (Arabidopsis thaliana) (UniProt Q9XFH4). Briefly: pull-down; in vitro pulldown of recombinant CDCA7α N terminus (1-136) with DDM1 N terminus (1-148); blots quantified, averages of nine (CDCA7α mutations) and five (DDM1 mutations) replicates.
The target in test [2] is DDM1 N terminus (1–148) (Arabidopsis thaliana) (UniProt Q9XFH4). The test is described as above.
Test [3] concerns the target T1, CDCA7α N terminus (1–136).
T1 chain: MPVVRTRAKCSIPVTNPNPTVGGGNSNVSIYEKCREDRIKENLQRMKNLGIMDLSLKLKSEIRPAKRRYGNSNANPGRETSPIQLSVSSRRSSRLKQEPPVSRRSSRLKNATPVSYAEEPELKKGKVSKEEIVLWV
Briefly: pull-down (GST pulldown, anti-His western blot, quantified). The conditions noted are these: chain shown with the change; n = 5 pulldown replicates; parent: est. 98; read off a plot. A general note: In western blotting, separated proteins are transferred to a membrane and probed.

These results are taken from PMC12711577.

Take “CDCA7α N terminus (1–136) (domain or fragment)”: the loss of binding relative to the WT in test [1] worked out at 50 % loss.

Regarding “CDCA7α N terminus (1–136) with E32K, E41K, E61K and I62A (domain or fragment)”, in test [2], the binding relative to the WT was 50 % of the WT.

B1: DDM1 N terminus (1–148), Q9XFH4 K102E; K120E; F116A; I124A (protein)
chain: MVSLRSRKVIPASEMVSDGKTEKDASGDSPTSVLNEEENCEEKSVTVVEEEILLAKNGDSSLISEAMAQEEEQLLKLREDEEKANNAGSAVAPNLNETQFTELDELLTQTQLYSEALLEEMEDATINGIESESQKAEPEKTGRGRKRK
Take B1: the response in test [3] is 4.
